Measured values published in publication PMC5063977 (The Journal of Biological Chemistry, 2016).

Tests used:
[1] = biological target: RAMP1-CLR complex expressed in HEK-293S cells (human) (UniProt Q16602)
[2] = biological target: RAMP3-CLR complex expressed in HEK-293S cells (human) (UniProt Q16602)
[3] = biological target: RAMP2-CLR complex expressed in HEK-293S cells (human) (UniProt Q16602)
[4] = biological target: RAMP3-CLR complex expressed in HEK-293 cells (human) (UniProt Q16602)
[5] = biological target: RAMP2-CLR complex expressed in HEK-293 cells (human) (UniProt Q16602)
[6] = biological target: RAMP1-CLR complex expressed in HEK-293 cells (human) (UniProt Q16602)
[7] = biological target: RAMP3-CLR complex expressed in HEK-293 cells (human) (UniProt Q16602); remark: listed apart in the source
[8] = biological target: RAMP2-CLR complex expressed in HEK-293 cells (human) (UniProt Q16602); remark: listed apart in the source
[9] = biological target: RAMP1-CLR complex expressed in HEK-293 cells (human) (UniProt Q16602); remark: listed apart in the source
[10] = biological target: RAMP1-CLR heterodimer expressed in S. cerevisiae (human) (UniProt Q16602)
[11] = biological target: RAMP2-CLR heterodimer expressed in S. cerevisiae (human) (UniProt Q16602)
[12] = biological target: RAMP3-CLR heterodimer expressed in S. cerevisiae (human) (UniProt Q16602)
[13] = biological target: RAMP1-CLR complex expressed in HEK-293S cells (human) (UniProt Q16602); remark: listed apart in the source
[14] = biological target: RAMP3-CLR complex expressed in HEK-293S cells (human) (UniProt Q16602); remark: listed apart in the source
[15] = biological target: RAMP2-CLR complex expressed in HEK-293S cells (human) (UniProt Q16602); remark: listed apart in the source
[16] = biological target: RAMP3-CLR complex expressed in HEK-293 cells (human) (UniProt Q16602); remark: listed apart in the source
[17] = biological target: RAMP2-CLR complex expressed in HEK-293 cells (human) (UniProt Q16602); remark: listed apart in the source
[18] = biological target: RAMP1-CLR complex expressed in HEK-293 cells (human) (UniProt Q16602); remark: listed apart in the source
[19] = tested on: RAMP-CLR complexes (RAMP1, RAMP2, RAMP3); assay: (Ca^2+)i mobilization with inhibitor pretreatment, HEK-293 cells, all RAMP-CLR complexes; assay type: cell-based, human; conditions: HEK-293, any RAMP-CLR complex
Procedure: FIGURE 8. CLR in combination with each RAMP generates receptors that mobilize (Ca^2+)i release when expressed in HEK-293 cells. (Ca^2+)i mobilization was determined from HEK-293 cells transiently transfected with CLR and RAMP1 (n = 5) (A), RAMP2 (n = 5) (B), and RAMP3 (n = 5) (C). […] Data are expressed as percentage of the maximal (Ca^2+)i release as determined using 10 μM ionomycin. To determine the contribution made by different G proteins to the (Ca^2+)i response, cells were preincubated with either PTX (to inhibit Gαi) or YM-254890 (a selective Gαq inhibitor). All values are means ± S.E. of n individual data sets.
HEK-293 cells, provided by Dr. Jügen Müller (University of Aston), were cultured in DMEM supplemented with 10% heat-inactivated FBS and kept at 37 °C in a humidified 95% air, 5% CO2 incubator. HEK-293S cells (a gift from AstraZeneca) were cultured in DMEM supplemented with 8% heat-inactivated FBS and kept at 37 °C in a humidified 95% air, 5% CO2 incubator. HEK-293 cells were transfected with FuGENE 6 (Roche Applied Science) in accordance with the manufacturer's instructions using a 1:3 (w:v) DNA:FuGENE ratio and a 1:1 ratio of RAMP to CLR. HEK-293S cells were seeded into 96-well poly-D-lysine-coated plates at a density of 15,000 cells/well (determined using a Countess^TM cell counter, Invitrogen) 1 day prior to transfection. HEK-293S cells were transiently transfected as described previously ([38]) using a 1:1 ratio of RAMP to CLR. The transfected cell lines were grown for 24–48 h prior to assaying.
Transfected HEK-293 cells were grown to confluence in black, clear bottomed, 96-well plates. […] Ligands were added robotically using a Mithras LB 940 multimode microplate reader in the range of 10 pM to 1 μM, and fluorescence was determined immediately post-injection with an excitation wavelength set to 485 nm and an emission wavelength set to 535 nm. […] Peak magnitude was calculated using five-point smoothing followed by correction against background fluorescence. […]

RAMP1-CLR complex expressed in HEK-293S cells (human), sequence (Q16602 23-461, chain 1 of 2): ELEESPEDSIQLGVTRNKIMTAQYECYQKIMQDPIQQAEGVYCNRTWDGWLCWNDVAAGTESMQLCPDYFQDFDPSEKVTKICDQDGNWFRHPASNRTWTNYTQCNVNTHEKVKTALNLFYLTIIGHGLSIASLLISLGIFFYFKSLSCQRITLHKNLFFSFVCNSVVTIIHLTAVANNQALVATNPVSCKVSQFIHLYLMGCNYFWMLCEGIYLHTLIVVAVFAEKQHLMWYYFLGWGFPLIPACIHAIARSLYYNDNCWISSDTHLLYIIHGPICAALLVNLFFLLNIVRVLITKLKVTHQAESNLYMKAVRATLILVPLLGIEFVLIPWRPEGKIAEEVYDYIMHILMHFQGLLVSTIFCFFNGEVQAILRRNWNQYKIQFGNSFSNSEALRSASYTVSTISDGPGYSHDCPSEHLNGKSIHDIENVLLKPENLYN
RAMP1-CLR complex expressed in HEK-293S cells (human), sequence (O60894 27-148, chain 2 of 2, further chain): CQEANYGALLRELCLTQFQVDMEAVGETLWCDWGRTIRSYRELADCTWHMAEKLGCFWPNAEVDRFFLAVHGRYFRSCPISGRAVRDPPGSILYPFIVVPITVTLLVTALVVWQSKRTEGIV
RAMP2-CLR complex expressed in HEK-293S cells (human), sequence (Q16602 23-461, chain 1 of 2): as the sequence (Q16602 23-461, chain 1 of 2) above
RAMP2-CLR complex expressed in HEK-293S cells (human), sequence (O60895 43-175, chain 2 of 2, further chain): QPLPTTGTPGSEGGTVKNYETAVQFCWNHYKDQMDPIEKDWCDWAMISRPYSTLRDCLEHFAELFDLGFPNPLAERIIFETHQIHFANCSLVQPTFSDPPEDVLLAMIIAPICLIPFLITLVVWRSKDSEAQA
RAMP3-CLR complex expressed in HEK-293S cells (human), sequence (Q16602 23-461, chain 1 of 2): as the sequence (Q16602 23-461, chain 1 of 2) above
RAMP3-CLR complex expressed in HEK-293S cells (human), sequence (O60896 24-148, chain 2 of 2, further chain): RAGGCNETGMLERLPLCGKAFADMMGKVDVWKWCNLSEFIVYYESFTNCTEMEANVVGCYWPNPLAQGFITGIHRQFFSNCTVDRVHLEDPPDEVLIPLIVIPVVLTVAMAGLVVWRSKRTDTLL
RAMP2-CLR complex expressed in HEK-293 cells (human), sequence (Q16602 23-461, chain 1 of 2): as the sequence (Q16602 23-461, chain 1 of 2) above
RAMP2-CLR complex expressed in HEK-293 cells (human), sequence (O60895 43-175, chain 2 of 2, further chain): as the sequence (O60895 43-175, chain 2 of 2, further chain) above
RAMP3-CLR complex expressed in HEK-293 cells (human), sequence (Q16602 23-461, chain 1 of 2): as the sequence (Q16602 23-461, chain 1 of 2) above
RAMP3-CLR complex expressed in HEK-293 cells (human), sequence (O60896 24-148, chain 2 of 2, further chain): as the sequence (O60896 24-148, chain 2 of 2, further chain) above
RAMP2-CLR heterodimer expressed in S. cerevisiae (human), sequence (Q16602 23-461, chain 1 of 2): as the sequence (Q16602 23-461, chain 1 of 2) above
RAMP2-CLR heterodimer expressed in S. cerevisiae (human), sequence (O60895 43-175, chain 2 of 2, further chain): as the sequence (O60895 43-175, chain 2 of 2, further chain) above
RAMP1-CLR complex expressed in HEK-293 cells (human), sequence (Q16602 23-461, chain 1 of 2): as the sequence (Q16602 23-461, chain 1 of 2) above
RAMP1-CLR complex expressed in HEK-293 cells (human), sequence (O60894 27-148, chain 2 of 2, further chain): as the sequence (O60894 27-148, chain 2 of 2, further chain) above
RAMP3-CLR heterodimer expressed in S. cerevisiae (human), sequence (Q16602 23-461, chain 1 of 2): as the sequence (Q16602 23-461, chain 1 of 2) above
RAMP3-CLR heterodimer expressed in S. cerevisiae (human), sequence (O60896 24-148, chain 2 of 2, further chain): as the sequence (O60896 24-148, chain 2 of 2, further chain) above
RAMP1-CLR heterodimer expressed in S. cerevisiae (human), sequence (Q16602 23-461, chain 1 of 2): as the sequence (Q16602 23-461, chain 1 of 2) above
RAMP1-CLR heterodimer expressed in S. cerevisiae (human), sequence (O60894 27-148, chain 2 of 2, further chain): as the sequence (O60894 27-148, chain 2 of 2, further chain) above

Substance: hAM (peptide)
- pEC50, (Ca^2+)i mobilization in HEK-293S cells [1]: 7.63 -log10
- pKa (operational model of agonism), (Ca^2+)i mobilization in HEK-293S cells [1]: 7.42 -log10
- pEC50, (Ca^2+)i mobilization in HEK-293S cells [2]: 8.02 -log10
- pKa (operational model of agonism), (Ca^2+)i mobilization in HEK-293S cells [2]: 8.56 -log10
- pEC50, (Ca^2+)i mobilization in HEK-293S cells [3]: 7.68 -log10
- pKa (operational model of agonism), (Ca^2+)i mobilization in HEK-293S cells [3]: 7.39 -log10
- pEC50, (Ca^2+)i mobilization in HEK-293 cells [4]: 8.12 -log10
- pKa (operational model of agonism), (Ca^2+)i mobilization in HEK-293 cells [4]: 7.76 -log10
- pEC50, (Ca^2+)i mobilization in HEK-293 cells [5]: 7.86 -log10
- pKa (operational model of agonism), (Ca^2+)i mobilization in HEK-293 cells [5]: 7.45 -log10
- pEC50, (Ca^2+)i mobilization in HEK-293 cells [6]: 7.9 -log10
- pKa (operational model of agonism), (Ca^2+)i mobilization in HEK-293 cells [6]: 7.69 -log10
- pEC50, cAMP accumulation in HEK-293 cells [7]: 8.86 -log10
- pKa (operational model of agonism), cAMP accumulation in HEK-293 cells [7]: 8.5 -log10
- pEC50, cAMP accumulation in HEK-293 cells [8]: 10.3 -log10
- pKa (operational model of agonism), cAMP accumulation in HEK-293 cells [8]: 9.95 -log10
- pEC50, cAMP accumulation in HEK-293 cells [9]: 7.92 -log10
- pKa (operational model of agonism), cAMP accumulation in HEK-293 cells [9]: 7.64 -log10
- pEC50, yeast growth reporter, GPA1/Gαi chimera strain [10]: 8.38 -log10
- pEC50, yeast growth reporter, GPA1/Gαq chimera strain [10]: 7.26 -log10
- pEC50, yeast growth reporter, GPA1/Gαs chimera strain [10]: 8.8 -log10
- pKa (operational model of agonism), yeast growth reporter, GPA1/Gαi chimera strain [10]: 8.2 -log10
- pKa (operational model of agonism), yeast growth reporter, GPA1/Gαq chimera strain [10]: 7.19 -log10
- pKa (operational model of agonism), yeast growth reporter, GPA1/Gαs chimera strain [10]: 8.81 -log10
- pEC50, yeast growth reporter, GPA1/Gαi chimera strain [11]: 7.91 -log10
- pEC50, yeast growth reporter, GPA1/Gαq chimera strain [11]: 7.93 -log10
- pEC50, yeast growth reporter, GPA1/Gαs chimera strain [11]: 8.82 -log10
- pKa (operational model of agonism), yeast growth reporter, GPA1/Gαi chimera strain [11]: 7.75 -log10
- pKa (operational model of agonism), yeast growth reporter, GPA1/Gαq chimera strain [11]: 7.78 -log10
- pKa (operational model of agonism), yeast growth reporter, GPA1/Gαs chimera strain [11]: 8.77 -log10
- pEC50, yeast growth reporter, GPA1/Gαi chimera strain [12]: 7.89 -log10
- pEC50, yeast growth reporter, GPA1/Gαq chimera strain [12]: 7.83 -log10
- pEC50, yeast growth reporter, GPA1/Gαs chimera strain [12]: 8.15 -log10
- pKa (operational model of agonism), yeast growth reporter, GPA1/Gαi chimera strain [12]: 8 -log10
- pKa (operational model of agonism), yeast growth reporter, GPA1/Gαq chimera strain [12]: 7.71 -log10
- pKa (operational model of agonism), yeast growth reporter, GPA1/Gαs chimera strain [12]: 8.1 -log10
- pEC50, cAMP accumulation in HEK-293S cells, with PTX pretreatment [13]: 8.03 -log10
- pEC50, cAMP accumulation in HEK-293S cells, without PTX [13]: 8.13 -log10
- pEC50, cAMP accumulation in HEK-293S cells, with PTX pretreatment [14]: 9.49 -log10
- pEC50, cAMP accumulation in HEK-293S cells, without PTX [14]: 9.63 -log10
- pEC50, cAMP accumulation in HEK-293S cells, with PTX pretreatment [15]: 9.38 -log10
- pEC50, cAMP accumulation in HEK-293S cells, without PTX [15]: 9.39 -log10
- pEC50, cAMP accumulation in HEK-293 cells, with PTX pretreatment [16]: 9.1 -log10
- pEC50, cAMP accumulation in HEK-293 cells, without PTX [16]: 8.98 -log10
- pKa (operational model of agonism), cAMP accumulation in HEK-293 cells, with PTX pretreatment [16]: 8.94 -log10
- pKa (operational model of agonism), cAMP accumulation in HEK-293 cells, without PTX [16]: 8.83 -log10
- pEC50, cAMP accumulation in HEK-293 cells, with PTX pretreatment [17]: 10.2 -log10
- pEC50, cAMP accumulation in HEK-293 cells, without PTX [17]: 10.3 -log10
- pKa (operational model of agonism), cAMP accumulation in HEK-293 cells, with PTX pretreatment [17]: 9.83 -log10
- pKa (operational model of agonism), cAMP accumulation in HEK-293 cells, without PTX [17]: 10 -log10
- pEC50, cAMP accumulation in HEK-293 cells, with PTX pretreatment [18]: 8.14 -log10
- pEC50, cAMP accumulation in HEK-293 cells, without PTX [18]: 7.93 -log10
- pKa (operational model of agonism), cAMP accumulation in HEK-293 cells, with PTX pretreatment [18]: 7.66 -log10
- pKa (operational model of agonism), cAMP accumulation in HEK-293 cells, without PTX [18]: 7.67 -log10

Substance: pertussis toxin [PTX]
- effect of PTX on calcium released in response to the three ligands [19]: no effect
